Series [1] concerns the target DDX3 (endogenous, full-length human DDX3 in tumor cell lysates), O00571.

Chain of DDX3 (endogenous, full-length human DDX3 in tumor cell lysates), O00571 (O00571 whole entry, looked up): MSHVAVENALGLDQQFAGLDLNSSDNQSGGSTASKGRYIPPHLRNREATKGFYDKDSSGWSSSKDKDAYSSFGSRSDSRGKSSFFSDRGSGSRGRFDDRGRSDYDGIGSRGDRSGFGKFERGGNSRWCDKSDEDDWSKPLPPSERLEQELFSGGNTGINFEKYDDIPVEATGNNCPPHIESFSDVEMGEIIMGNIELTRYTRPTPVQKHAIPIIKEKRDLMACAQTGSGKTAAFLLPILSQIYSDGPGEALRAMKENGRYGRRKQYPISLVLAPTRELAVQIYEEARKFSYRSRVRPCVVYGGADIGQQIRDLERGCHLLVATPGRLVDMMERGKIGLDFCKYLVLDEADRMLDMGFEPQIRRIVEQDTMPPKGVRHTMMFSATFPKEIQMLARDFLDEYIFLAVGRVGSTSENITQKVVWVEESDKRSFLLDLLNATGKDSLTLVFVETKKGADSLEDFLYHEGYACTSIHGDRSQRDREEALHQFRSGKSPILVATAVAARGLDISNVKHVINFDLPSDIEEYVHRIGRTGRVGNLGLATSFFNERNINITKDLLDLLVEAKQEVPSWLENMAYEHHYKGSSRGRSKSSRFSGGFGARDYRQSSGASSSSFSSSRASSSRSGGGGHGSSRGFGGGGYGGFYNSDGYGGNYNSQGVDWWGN
Chain of cIAP1, Q13490 (Q13490 whole entry): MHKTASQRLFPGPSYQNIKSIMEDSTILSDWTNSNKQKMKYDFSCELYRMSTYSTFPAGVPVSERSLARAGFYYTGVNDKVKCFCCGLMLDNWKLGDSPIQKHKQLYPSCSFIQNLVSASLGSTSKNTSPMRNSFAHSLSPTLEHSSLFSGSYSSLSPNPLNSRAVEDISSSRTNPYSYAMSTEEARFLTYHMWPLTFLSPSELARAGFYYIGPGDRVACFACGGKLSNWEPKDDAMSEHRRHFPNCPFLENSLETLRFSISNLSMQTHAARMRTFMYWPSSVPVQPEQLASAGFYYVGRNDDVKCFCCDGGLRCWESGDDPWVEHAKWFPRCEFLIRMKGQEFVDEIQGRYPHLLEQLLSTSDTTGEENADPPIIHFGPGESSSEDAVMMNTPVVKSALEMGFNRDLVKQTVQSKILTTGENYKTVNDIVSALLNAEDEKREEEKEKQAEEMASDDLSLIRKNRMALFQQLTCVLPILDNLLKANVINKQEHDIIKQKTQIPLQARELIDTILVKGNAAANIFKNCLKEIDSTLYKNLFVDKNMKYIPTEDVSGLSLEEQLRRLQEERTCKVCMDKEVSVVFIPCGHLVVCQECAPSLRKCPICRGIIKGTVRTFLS

B1: Active Caspase-8 (protein)
chain: SESQTLDKVYQMKSKPRGYCLIINNHNFAKAREKVPKLHSIRDRNGTHLDAGALTTTFEELHFEIKPHDDCTVEQIYEILKIYQLMDHSNMDCFICCILSHGDKGIIYGTDGQEAPIYELTSQFTGLKCPSLAGKPKVFFIQACQGDNYQKGIPVETDSEEQPYLEMDLSSPQTRYIPDEADFLLGMATVNNCVSYRNPAEGTWYIQSLCQSLRERCPRGDDILTILTEVNYEVSNKDDKKNMGKQMPQPTFTLRKKLVFPSD
As to B1, the “caspase-8 protease activity on the fluorogenic substrate Ac-IETD-AMC” value in the series with cIAP1, Q13490 is “purified cIAP1 also suppressed caspase-8 protease activity completely”. Moreover, in series [1], the “cleavage of DR5-associated DDX3 by active caspase, Western blot with anti-DDX3 antibody” value was “DDX3 cleavage by caspase-8 in resistant cells was highly attenuated compared to sensitive cells”.

B2: Active Caspase-2 (protein)
chain: GPVCLQVKPCTPEFYQTHFQLAYRLQSRPRGLALVLSNVHFTGEKELEFRSGGDVDHSTLVTLFKLLGYDVHVLCDQTAQEMQEKLQNFAQLPAHRVTDSCIVALLSHGVEGAIYGVDGKLLQLQEVFQLFDNANCPSLQNKPKMFFIQACRGDETDRGVDQQDGKNHAGSPGCEESDAGKEKLPKMRLPTRSDMICGYACLKGTAAMRNTKRGSWYIEALAQVFSERACDMHVADMLVKVNALIKDREGYAPGTEFHRCKEMSEYCSTLCRHLYLFPGHPPT
For B2, the “cleavage of DR5-associated DDX3 by active caspase, Western blot with anti-DDX3 antibody” value in series [1] is “caspase-2 exhibited similar protease potential in both cells”.
